Numbering of substitutions follows the chain as printed. Primed or numbered codes have the meaning given here. No end group written: not given here. Biotin′ = biotin label at the C-terminus
Experiments:
Test in all cases: peptide scanning ELISA, biotin peptide on streptavidin
SWGPRPRRYTVLK-Biotin = target: T1, SWGPRPRRYTVLK-Biotin (human)
T1 construct: Overlapping peptide of the outer loop of human LAG-3; also called LAG-3 Extra cyclic peptide
T1 peptide: SWGPRPRRYTVLK-{Biotin′}
Method: (§1) Fifteen overlapping peptides including the full length of the outer loop sequence were prepared and biotin was coupled to each C-terminus. Enzyme-linked immunosorbent assay (ELISA) was used to detect the binding of antibodies to these peptides. Streptavidin (sigma, Cat #M5432) was diluted with PBS to a final concentration of 1.0 μg/ml, and then added as 100 μl per well to a 96-well ELISA plate. The plate was sealed with plastic film and incubated overnight at 4° C. The plate was washed 2 times with the plate washing solution (PBS+0.01% Tween20) on the next day, and added with the blocking solution (PBS+0.01% Tween20+1% BSA) and blocked at room temperature for 1-2 hours. The blocking solution was poured off, and biotinylated peptides was added to a final concentration of 1 ug/ml, as 100 ul per well to the 96-well ELISA plate, incubated at 37° C. for 1-2 hours, then washed with plate washing solution (PBS+0.01% Tween20)2-3 times. Then the antibody samples to be tested were incubated as 100 μl per well at 37° C. for 1-2 hours, and then the plate was washed 2-3 times with a plate washing solution (PBS+0.01% Tween20). HRP (horseradish peroxidase) labeled secondary antibody was added, and the plate was incubated at 37° C. for 1-2 hours, and washed 2-3 times with a plate washing solution (PBS+0.01% Tween20). 100 μl of TMB substrate was added to each well. After incubated at room temperature for 15-30 minutes, the plate was added with 100 μl of stop solution (1.0N HCl) to each well.

WGPRPRRYTVLSK-Biotin = target: T2, WGPRPRRYTVLSK-Biotin (human)
T2 construct: Overlapping peptide of the outer loop of human LAG-3; also called LAG-3 Extra cyclic peptide
T2 peptide: WGPRPRRYTVLSK-{Biotin′}
Method: as §1

AAPSSWGPRPRRK-Biotin = target: T3, AAPSSWGPRPRRK-Biotin (human)
T3 construct: Overlapping peptide of the outer loop of human LAG-3; also called LAG-3 Extra cyclic peptide
T3 peptide: AAPSSWGPRPRRK-{Biotin′}
Method: as §1

Measured: binding result

B1: 409B11E12 (mouse antibody purified from hybridoma) (antibody, V domains shown)
VH: QVQLQQSGAELVRPGASVTLSCKASGYTFTDYEMHWVKQTTVHGLEWIGATDPETSYSAYNQKFKGKAILTADKSSSTAYMELRSLTSEDSAVYYCIATGWNDWGQGTSLTVSS
VL: DLKMTQSPSSMYASLGERVTITCKASQDINSYLSWFQQKPGKSPKTLIYRANRLLDGVPSRFSGSGSGQDYSLTISSLEYEDMGIYYCLQYDEFPYTFGGGTKLEIK
notes: also called mAb104-409B11E12
binds: all assays above

B2: 105F1E10 (mouse antibody purified from hybridoma) (antibody, V domains shown)
VH: EVQLQQSGPELVKPGASVKMSCRASGYTFTDFKMHWMKQSHGKSLEWIGYIAPNNGGTAYNQKFRGKATLTVNESSNTAYMELRSLTSEDSAVYYCVDWDDVDYWGQGTTLTVSS
VL: B1 VL with L2I, P40S, L55V, D92V, Y96L, G100A, I106L
notes: also called mAb009-105F1E10
binds: all assays above

B3: 409D4E10 (mouse antibody purified from hybridoma) (antibody, V domains shown)
VH: B1 VH with Y27N, T41P, S56D, Y57N, S58T, A72T, A98T, T99S
VL: B1 VL with L2I, D92N
notes: also called mAb112-409D4E10
binds: all assays above
